Measured values: the supplement of paper PMC11246515
± gives the standard deviation of the averaged measurements.

Test: total protein half-life in vivo (active degradation + dilution); higher = more stable protein
[1] = E. coli NCM3722 delta-clpP delta-lon delta-hslV, growth: N-lim chemostat, doubling time 6 h
[2] = E. coli NCM3722 delta-clpP, growth: N-lim chemostat, doubling time 6 h
[3] = E. coli NCM3722 delta-hslV, growth: N-lim chemostat, doubling time 6 h
[4] = E. coli NCM3722 delta-lon, growth: N-lim chemostat, doubling time 6 h
[5] = E. coli NCM3722 delta-smpB, growth: N-lim chemostat, doubling time 6 h
[6] = wild type E. coli NCM3722, growth: N-lim chemostat, doubling time 6 h
[7] = wild type E. coli NCM3722, growth: N-lim chemostat, doubling time 12 h
[8] = wild type E. coli NCM3722, growth: P-lim chemostat, doubling time 12 h
[9] = wild type E. coli NCM3722, growth: C-lim chemostat, doubling time 3 h
[10] = wild type E. coli NCM3722, growth: C-lim chemostat, doubling time 6 h
[11] = wild type E. coli NCM3722, growth: C-lim chemostat, doubling time 12 h
[12] = wild type E. coli NCM3722, growth: P-lim chemostat, doubling time 6 h

Sequence | total protein half-life in vivo [1] | total protein half-life in vivo [2] | total protein half-life in vivo [3] | total protein half-life in vivo [4] | total protein half-life in vivo [5] | total protein half-life in vivo [6] | total protein half-life in vivo [7] | total protein half-life in vivo [8] | total protein half-life in vivo [9] | total protein half-life in vivo [10] | total protein half-life in vivo [11] | total protein half-life in vivo [12]
MSRTTTVDGAPASDTDKQSISQPNQFIKRGTPQFMRVTLALFSAGLATFALLYCVQPILPVLSQEFGLTPANSSISLSISTAMLAIGLLFTGPLSDAIGRKPVMVTALLLASICTLLSTMMTSWHGILIMRALIGLSLSGVAAVGMTYLSEEIHPSFVAFSMGLYISGNSIGGMSGRLISGVFTDFFNWRIALAAIGCFALASALMFWKILPESRHFRPTSLRPKTLFINFRLHWRDRGLPLLFAEGFLLMGSFVTLFNYIGYRLMLSPWHVSQAVVGLLSLAYLTGTWSSPKAGTMTTRYGRGPVMLFSTGVMLFGLLMTLFSSLWLIFAGMLLFSAGFFAAHSVASSWIGPRAKRAKGQASSLYLFSYYLGSSIAGTLGGVFWHNYGWNGVGAFIALMLVIALLVGTRLHRRLHA | 1.3 h | 1.36 ± 0.35 h | 1.46 ± 0.017 h | 1.1 ± 0.07 h | 2.24 ± 0.1 h | 1.42 ± 0.079 h | 2.65 ± 0.55 h | 2.5 h | – | – | – | –
MSRVNPLSSLSLLAVLVLAGCSSQAPQPLKKGEKAIDVASVVRQKMPASVKDRDAWAKDLATTFESQGLAPTLENVCSVLAVAQQESNYQADPAVPGLSKIAWQEIDRRAERMHIPAFLVHTALKIKSPNGKSYSERLDSVRTEKQLSAIFDDLINMVPMGQTLFGSLNPVRTGGPMQVSIAFAEQHTKGYPWKMDGTVRQEVFSRRGGLWFGTYHLLNYPASYSAPIYRFADFNAGWYASRNAAFQNAVSKASGVKLALDGDLIRYDSKEPGKTELATRKLAAKLGMSDSEIRRQLEKGDSFSFEETALYKKVYQLAETKTGKSLPREMLPGIQLESPKITRNLTTAWFAKRVDERRARCMKQ | 6.06 ± 0.21 h | – | – | – | 5.8 ± 0.24 h | 6.93 ± 0.84 h | 12.9 ± 0.39 h | 12.4 ± 0.53 h | 3.28 ± 0.2 h | 6.11 ± 0.086 h | 11.2 ± 0.54 h | 6.11 ± 0.4 h
MSRVTAIISALIICIIVSLSWAVNHYRDNAIAYKVQRDKNARELKLANAAITDMQMRQRDVAALDAKYTKELADAKAENDALRDDVAAGRRRLHIKAVCQSVREATTASGVDNAASPRLADTAERDYFTLRERLITMQKQLEGTQKYINEQCR | – | – | – | – | – | – | – | 6.44 h | – | – | 3.49 h | –
MSSDIKIKVQSFGRFLSNMVMPNIGAFIAWGIITALFIPTGWLPNETLAKLVGPMITYLLPLLIGYTGGKLVGGERGGVVGAITTMGVIVGADMPMFLGSMIAGPLGGWCIKHFDRWVDGKIKSGFEMLVNNFSAGIIGMILAILAFLGIGPIVEALSKMLAAGVNFMVVHDMLPLASIFVEPAKILFLNNAINHGIFSPLGIQQSHELGKSIFFLIEANPGPGMGVLLAYMFFGRGSAKQSAGGAAIIHFLGGIHEIYFPYVLMNPRLILAVILGGMTGVFTLTILGGGLVSPASPGSILAVLAMTPKGAYFANIAGVCAAMAVSFVVSAILLKTSKVKEEDDIEAATRRMQDMKAESKGASPLSAGDVTNDLSHVRKIIVACDAGMGSSAMGAGVLRKKIQDAGLSQISVTNSAINNLPPDVDLVITHRDLTERAMRQVPQAQHISLTNFLDSGLYTSLTERLVAAQRHTANEEKVKDSLKDSFDDSSANLFKLGAENIFLGRKAATKEEAIRFAGEQLVKGGYVEPEYVQAMLDREKLTPTYLGESIAVPHGTVEAKDRVLKTGVVFCQYPEGVRFGEEEDDIARLVIGIAARNNEHIQVITSLTNALDDESVIERLAHTTSVDEVLELLAGRK | 6.55 ± 0.42 h | 6.42 ± 0.66 h | 6.25 ± 0.23 h | – | 6.64 ± 0.41 h | 6.4 ± 0.15 h | – | 13.8 ± 1.2 h | 3.35 ± 0.32 h | 6.92 ± 0.54 h | 12.66 ± 0.082 h | 6.275 ± 0.059 h
MSSFQFEQIGVIRSPYKEKFAVPRQPGLVKSANGELHLIAPYNQADAVRGLEAFSHLWILFVFHQTMEGGWRPTVRPPRLGGNARMGVFATRSTFRPNPIGMSLVELKEVVCHKDSVILKLGSLDLVDGTPVVDIKPYLPFAESLPDASASYAQSAPAAEMAVSFTAEVEKQLLTLEKRYPQLTLFIREVLAQDPRPAYRKGEETGKTYAVWLHDFNVRWRVTDAGFEVFALEPR | 5 ± 0.19 h | 4.77 ± 0.35 h | 4.77 ± 0.049 h | 5.29 ± 0.31 h | 5.06 ± 0.3 h | 4.98 ± 0.3 h | 10.1 ± 2.3 h | 13.5 ± 1.7 h | 2.89 ± 0.41 h | 5.88 ± 0.54 h | 9.48 ± 0.38 h | 6.19 ± 0.56 h
MSSHPYVTQQNTPLADDTTLMSTTDLQSYITHANDTFVQVSGYTLQELQGQPHNMVRHPDMPKAAFADMWFTLKKGEPWSGIVKNRRKNGDHYWVRANAVPMVREGKISGYMSIRTRATDEEIAAVEPLYKALNAGRTSKRIHKGLVVRKGWLGKLPSLPLRWRARGVMTLMFILLAAMLWFVAAPVVTYILCALVVLLASACFEWQIVRPIENVAHQALKVATGERNSVEHLNRSDELGLTLRAVGQLGLMCRWLINDVSSQVSSVRNGSETLAKGTDELNEHTQQTVDNVQQTVATMNQMAASVKQNSATASAADKLSITASNAAVQGGEAMTTVIKTMDDIADSTQRIGTITSLINDIAFQTNILALNAAVEAARAGEQGKGFAVVAGEVRHLASRSANAANDIRKLIDASADKVQSGSQQVHAAGRTMEDIVAQVKNVTQLIAQISHSTLEQADGLSSLTRAVDELNLITQKNAELVEESAQVSAMVKHRASRLEDAVTVLH | – | – | – | – | – | – | – | – | 2.72 ± 0.7 h | – | – | –
